Patent US20100330095A1 (U3 PHARMA, published 2010)
Numbering of substitutions follows the chain as printed. Blank lines part the entries; values can stand above or below the binder they belong to.

Assays:
[1] = target: T1, human receptor tyrosine kinase AXL transcript variant 1 (human, UniProt P30530 26-894); test: flow cytometry, NIH3T3-hAXL cells
T1 construct: Overexpressed on RatI-AXL cl.2 and NIH3T3-AXL cl.7 fibroblasts (pLXSN-hAXL); endogenous on human cancer cell lines and HUVEC in the functional assays; also called hAXL; human AXL
T1 sequence: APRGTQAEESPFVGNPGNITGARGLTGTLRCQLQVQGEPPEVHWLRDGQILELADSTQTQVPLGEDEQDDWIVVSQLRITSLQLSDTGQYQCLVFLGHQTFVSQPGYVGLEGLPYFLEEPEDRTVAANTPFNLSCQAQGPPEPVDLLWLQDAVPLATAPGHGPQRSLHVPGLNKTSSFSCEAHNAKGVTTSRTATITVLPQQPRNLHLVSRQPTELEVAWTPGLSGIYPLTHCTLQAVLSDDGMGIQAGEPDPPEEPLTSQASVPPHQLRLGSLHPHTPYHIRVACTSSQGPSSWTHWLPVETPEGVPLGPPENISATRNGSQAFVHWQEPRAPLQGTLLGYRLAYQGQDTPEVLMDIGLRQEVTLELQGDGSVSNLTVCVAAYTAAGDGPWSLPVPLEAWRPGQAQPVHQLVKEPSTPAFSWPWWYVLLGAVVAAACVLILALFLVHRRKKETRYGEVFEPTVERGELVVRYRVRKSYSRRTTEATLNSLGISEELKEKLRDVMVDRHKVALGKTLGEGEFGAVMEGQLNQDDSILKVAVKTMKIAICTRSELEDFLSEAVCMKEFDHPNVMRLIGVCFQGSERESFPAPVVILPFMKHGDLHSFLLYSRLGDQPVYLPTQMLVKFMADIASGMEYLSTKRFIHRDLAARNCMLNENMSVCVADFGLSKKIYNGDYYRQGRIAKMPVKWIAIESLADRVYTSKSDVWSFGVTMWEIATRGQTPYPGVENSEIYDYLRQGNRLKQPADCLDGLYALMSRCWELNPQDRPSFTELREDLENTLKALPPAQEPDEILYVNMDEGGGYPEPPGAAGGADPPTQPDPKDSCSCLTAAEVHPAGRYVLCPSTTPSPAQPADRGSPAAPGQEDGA

cynomolgus monkey AXL = target: T2, cynomolgus monkey AXL (cynomolgus monkey, UniProt P30530 26-894 (human entry)); test: flow cytometry, transfected HEK293T cells, 10 µg/ml
T2 construct: Cloned from cynomolgus brain cDNA; transiently expressed on HEK293T cells (pcDNA3-cyAXL); also called cyAXL
T2 chain: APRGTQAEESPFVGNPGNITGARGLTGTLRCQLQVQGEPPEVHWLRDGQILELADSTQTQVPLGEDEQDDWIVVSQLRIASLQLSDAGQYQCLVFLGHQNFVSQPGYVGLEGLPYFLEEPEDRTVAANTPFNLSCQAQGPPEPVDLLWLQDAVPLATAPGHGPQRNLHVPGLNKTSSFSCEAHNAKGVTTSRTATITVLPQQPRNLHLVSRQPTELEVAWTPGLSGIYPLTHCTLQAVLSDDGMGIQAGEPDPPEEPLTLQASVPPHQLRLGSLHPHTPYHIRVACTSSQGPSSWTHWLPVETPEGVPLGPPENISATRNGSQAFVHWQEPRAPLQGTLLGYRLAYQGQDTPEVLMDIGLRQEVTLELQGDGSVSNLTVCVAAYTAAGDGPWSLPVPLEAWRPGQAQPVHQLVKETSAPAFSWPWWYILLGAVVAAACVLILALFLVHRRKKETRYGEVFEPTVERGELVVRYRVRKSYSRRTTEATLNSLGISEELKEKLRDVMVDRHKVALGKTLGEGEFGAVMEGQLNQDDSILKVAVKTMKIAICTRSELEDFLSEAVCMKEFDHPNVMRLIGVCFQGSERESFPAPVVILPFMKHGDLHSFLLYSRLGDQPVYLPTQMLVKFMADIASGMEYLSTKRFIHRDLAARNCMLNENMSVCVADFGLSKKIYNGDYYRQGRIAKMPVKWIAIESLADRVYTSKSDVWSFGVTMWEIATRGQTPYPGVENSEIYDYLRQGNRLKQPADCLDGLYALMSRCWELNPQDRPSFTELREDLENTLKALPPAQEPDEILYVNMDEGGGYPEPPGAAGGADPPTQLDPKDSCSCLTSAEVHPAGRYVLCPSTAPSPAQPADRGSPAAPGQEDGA
Procedure: FIG. 3. Flow cytometry analysis of cross-reactivity of rat-anti AXL antibodies with mouse and cynomolgus monkey AXL as well as human Mer and Sky. HEK293T fibroblasts were transiently transfected with pcDNA3, pcDNA3-hAXL, pcDNA3 mAXL, pcDNA3-cyAXL, pcDNA3-hMer, or pcDNA3-hSky. […] See text for details.
For FACS analysis, 2×10⁵ cells were harvested with 10 mM EDTA in PBS, washed once with FACS buffer (PBS, 3% FCS, 0.4% azide) and seeded on a 96 well round bottom plate. […] After incubation on ice for 1 h, cells were washed twice with chilled FACS buffer and resuspended with PE-conjugated donkey anti-rat (Jackson) secondary antibody diluted 1:50 in FACS buffer (100 μl/well) or PE-conjugated donkey anti-mouse secondary antibody for control. Protected from light, cells were incubated on ice for 30 min, washed twice with FACS buffer and analyzed using an Epics XL-MCL flow cytometer (Beckman Coulter).

FACS shift [1]: 36.2 | binding result (cynomolgus monkey AXL): binds
B1: I 11B7 (antibody, V domains shown)
VH: EVQLQESGPGLVKPSQSLSLTCSVTGYSITSNYWGWIRKFPGDKMEWMGYITYSGSTSYNPSLKSRISITRDTSKNQFFLQLNSVTSEDTATYYCAITTFYYWGQGVMVTVSS
VL: DIQMTQAPSSLPASLGDRVTITCRASQDIGNYLRWFQQKPGKSPRLMISGATNLAAGVPSRFSGSRSGSDYSLTISSLESEDMADYYCLQSKESPWTFGGGTKLELK
notes: rat hybridoma antibody, antagonistic

FACS shift [1]: 37.5 | binding result (cynomolgus monkey AXL): binds
B2: I 10D12 (antibody, V domains shown)
VH: EVQLQESGPGLVKPSQSLSLTCSVTGYSITSNYWGWIRKFPGNKMEWMGYITNSGGTAYNPSLKSRISITRDTSKNQFFLQLNSVIPEDSATYFCSRTPWDWGQGVMVTVSS
VL: B1 VL with T22A, L73R
notes: rat hybridoma antibody, antagonistic; subclass G1

FACS shift [1]: 8.9 | binding result (cynomolgus monkey AXL): binds
B3: III 11D5 (antibody, rat IgG2a, V domains shown)
VH: EVQLQESGPGLVKPSQSLSLTCSVTGYSITSNYWGWIRKFPGNKMEWIGHITNSGNTTYNPSLKSRISISRDTSRNQFFLQLNSVTTEDTATYYCAKGAFDYWGQGVMVTVSS
VL: DIQMTQSPSSMSTSLGDRVTITCRASQDIGNYLSWFQQKVGKSPRRMIYGAIKLAVGVPSRFSGSRSGSDYSLTISSLESEDMAIYYCLQYIQFPLTFGSGTKLELK
notes: as for B1
